Patent US20200113997A1 (published 2020)
Positions count from the first letter of the chain named.

T1: Man9-V3 glycopeptide (cyclic)
T1 peptide: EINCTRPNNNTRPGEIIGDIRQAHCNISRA

B1: DH270.3 (antibody, V domains shown)
VH: QVQLVQSGAEMKNPGASVKVSCAASGYTFTDFYIHWVRLAPGQGLEWMGWMNPKTGRTNNAQNFQGRVIMTRDTSIGTAYMELRRLTSDDTAVYYCVTGGWISPYYDSSYYPNFDHWGQGTLVTVSS
VL: QSALTQPASVSGSPGQSITISCTGTSYDVGKFDLVSWYQQHPGKAPKYMIYEVNKWPSGVSHRFSGSKSGNTASLTISGLQAEDEADYYCCSFGGSATVVCGGGTKVTVL
B2: DH270.4 (antibody, V domains shown)
VH: B1 VH with Q1E, T28G, Q43H, E46Q, N63D, M70L, V123I
VL: B1 VL with G30A, Y38F
B3: DH270.5 (antibody, V domains shown)
VH: B1 VH with M11V, A24P, M48L, N60Q, A61G, R85S, G100A, P104D
VL: B1 VL with Q1L, S2P, A3V, S26I, Q40H, M49L, N54K, A82V, T98A
B4: DH270.2 (antibody, V domains shown)
VH: QVQLVQSGAEMKKPGASVRVSCKASGYTFTDYYIHWVRQAPGQGPEWMGWINPSTGRTNSPQKFQGRVIMTRDTSISTAYMDLNRLTSDDTAMYYCTTGGWIGLYSDTSGYPNFDYWGQGTLVTVSS
VL: QSALTQPASVSGSPGQSITISCTGTNYDVGSYNLVSWYQQHPGKVPKYIIYEVNKRPSGVSNRFSGSKSGNTASLTISGLQAEDEADYYCCSYAGSSIIFFGGGTKLTVI

Target: T1, Man9-V3 glycopeptide
Assay: BLI

Binder	Kd [nM]
B1	195
B2	346
B3	281
B4	4770
